Data reported in US20240002497A1.

Assays:
[1] = biological target: huNav1.7α + β1-β2-β3 (human) (UniProt Q15858); test: binding FACS, CHO Flp-In, periplasmic extract
[2] = biological target: huNav1.5-β1-β2-β3 (human) (UniProt Q14524); test: binding FACS, CHO Flp-In, periplasmic extract
[3] = biological target: rhNav1.7α + β1-β2-β3 (rhesus monkey); test: FACS, CHO Flp-In, competitor 1 µM F010300703
[4] = biological target: huNav1.5-β1-β2-β3 (human) (UniProt Q14524); test: FACS, CHO Flp-In, competitor 1 µM F010300703
[5] = biological target: huNav1.5-β1-β2-β3 (human) (UniProt Q14524); test: binding FACS, HEK Flp-In
[6] = biological target: huNav157chim14-β1-β2-β3 (human); test: binding FACS, HEK Flp-In
[7] = biological target: rhNav1.7α + β1-β2-β3 (rhesus monkey); test: FACS, CHO Flp-In, competitor 1 µM IRR00092
[8] = biological target: huNav1.7α + β1-β2-β3 (human) (UniProt Q15858); test: FACS, CHO Flp-In, competitor 1 µM IRR00092
[9] = biological target: huNav1.5-β1-β2-β3 (human) (UniProt Q14524); test: FACS, CHO Flp-In, competitor 1 µM IRR00092
[10] = biological target: rhNav1.7α + β1-β2-β3 (rhesus monkey); test: competition FACS vs EC25 of 275B05(N93R), CHO FlpIn, + 50 µM human SA
[11] = biological target: huNav1.7α + β1-β2-β3 (human) (UniProt Q15858); test: as above
[12] = biological target: rhNav1.7α + β1-β2-β3 (rhesus monkey); test: cell-based or functional assay
[13] = biological target: huNav1.7α + β1 (human) (UniProt Q15858); test: cell-based or functional assay
[14] = biological target: rhNav1.7α + β1-β2-β3 (rhesus monkey); test: competition FACS IC50 with 50 µM human SA against without
[15] = biological target: huNav1.7α + β1-β2-β3 (human) (UniProt Q15858); test: as above
[16] = biological target: rhNav1.7α + β1-β2-β3 (rhesus monkey); test: competition FACS vs EC25 of 275B05(N93R), CHO FlpIn
[17] = biological target: huNav1.7α + β1-β2-β3 (human) (UniProt Q15858); test: as above
[18] = biological target: rhNav1.7α + β1-β2-β3 (rhesus Nav1.7α co-expressed with Navβ1, Navβ2 and Navβ3) (rhesus monkey); test: FACS, periplasmic extract, CHO Flp-In cells; SD MFI 16

B1: F010300702 (bispecific antibody, V domains shown, not shown: small tags and cut ends)
VH: EVQLVESGGGLVQPGGSLRLSCAASGSIFNINSMAWYRRAPGKQRELVASSTNGGSTNYADSVKGRFTISRDNAKRVYLQMNSLTPEDTAVYYCRALLQPSIYDISRTYWGQGTLVTVSS
MFI [1]: 1570 MFI | MFI [2]: 662 MFI | MFI [3]: 721 MFI | MFI [4]: 653 MFI | MFI [5]: 946 MFI | MFI [6]: 15400 MFI | MFI [7]: 5170 MFI | MFI [8]: 4120 MFI | MFI [9]: 684 MFI

B2: F010301555 (bispecific antibody, part only; not given: Anti-albumin building block, part only)
chain, part: DVQLVESGGGLVQPGGSLRLSCAASGPVFNINSMAWYRRAPGKQRELVAYSTPGWDWNYADSVKGRFTISRDNAKRVYLQMNSLTPEDTAVYYCRWLLQPSIYDISRTYWGQGTLVTVSSGGGGSGGGS
IC50 [10]: 880 nM | IC50 [11]: 1200 nM | Human SA ratio of QPatch IC50 [12]: 7 | QPatch electrophysiology IC50 [M], HEK cells [12]: 3.5e-08 M | QPatch electrophysiology IC50 [M], HEK cells, + 10 µM human SA [12]: 2.6e-07 M | Human SA ratio of QPatch IC50 [13]: 7 | QPatch electrophysiology IC50 [M], HEK cells [13]: 4.7e-08 M | QPatch electrophysiology IC50 [M], HEK cells, + 10 µM human SA [13]: 3.4e-07 M | Human SA ratio [14]: 10 | Human SA ratio [15]: 8 | IC50 [16]: 92 nM | IC50 [17]: 140 nM

B3: F0103464B09 T100Y library variant (VHH, name in Kabat numbering)
VHH: EVQLVESGGGLVQPGGSLRLSCATTSRAFIRDVFTGWYRRVPGKERELVARIYNGGNTNYADFAKGRFSISRDNAKKMVTLRMSNLKPEDTGVYYCLFSGTINYGREYRSGDYWGQGTLVTVSS
Mean MFI [18]: 526 MFI
